Data: patent US11332546B2, “Protease inhibitory antibodies and methods of use thereof” (The Regents of The University of California, priority 2019, dated 2022)
One block for each molecule: values may come before it.

Columns and labels:
cathepsin B [1] = biological target: T1, cathepsin B (Homo sapiens, UniProt P07858); test: Binding kinetics by biolayer interferometry, Fabs on cathepsin B; settings: Fab, read-out: Binding Affinity KD
T1 construct: human cathepsin B (residue 66-339); hexahistidine (C); made in house; host or cells: E. coli (periplasm)
Experimental: Binding kinetics of produced antibodies towards associated protease targets were analyzed by using biolayer interferometry (ForteBio). For Fabs, biotinylated proteases were immobilized on streptavidin biosensors, and Fab binding to the sensors in absence of protease was monitored as backgrounds. For IgGs, protein A sensors were used and protease bindings without IgG were checked as backgrounds. kon and koff were determined for KD calculations. […] Fab in vitro stability was tested by incubating 1 μM Fab with 1 μM of the respective protease in the assay buffer for 12 hours and the samples were analyzed by SDS-PAGE.

cathepsin K = biological target: T2, cathepsin K (Homo sapiens, UniProt P43235); test: FRET inhibition selectivity test, cathepsin K; format: biochemical; settings: same Fab concentrations as for cathepsin B
T2 construct: hexahistidine (C); made in house; host or cells: E. coli (periplasm)
T2 sequence (P43235 115-329): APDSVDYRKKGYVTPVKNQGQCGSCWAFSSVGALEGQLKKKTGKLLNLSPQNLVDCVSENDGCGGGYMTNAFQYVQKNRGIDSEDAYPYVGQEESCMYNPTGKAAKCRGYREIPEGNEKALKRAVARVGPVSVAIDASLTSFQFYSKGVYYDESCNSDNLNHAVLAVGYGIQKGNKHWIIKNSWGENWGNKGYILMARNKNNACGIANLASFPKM
Experimental: (§3) For inhibition tests, 1 μM Fabs were 2-fold serially diluted into protease specific assay buffer and incubated with 1-10 nM proteases for 30 min at room temperature. […] Inhibition percentages at given concentrations were calculated by comparing the initial reaction rates in the presence or absence of inhibitor. IC50 was determined as the concentration that achieved 50% inhibition, and KI values were calculated using KI=IC50/(S/Km+1). Vmax and Km at various Fab concentrations were measured to determine the inhibition type. FRET inhibition assays were also used for selectivity tests of isolated Fabs with the relevant proteases.

cathepsin B [2] = biological target: T1, cathepsin B; test: FRET peptide inhibition assay, cathepsin B (M-2595); format: biochemical; settings: Fab; for Ki: cathepsin B, FRET peptide, read-out: Inhibition Potency KI
Experimental: as §3

[3] = test system: HEK293F cells expressing APP571-696; test: Aβ40 formation in HEK293F cells expressing APP571-696 (ELISA); format: cell-based; settings: HEK293 cells expressing APP, IgG 72 h, dose-dependent
Experimental: For amyloid precursor protein (APP) degradation studies, APP571-696 was cloned to the C-terminal of maltose binding protein (MBP) for E. coli expression and purified using amylose resin (NEB). 5 μM purified MBP-APP was incubated with 1 μM BACE1-Fc in the absence or presence of 1 μM IgG in BACE1 assay buffer at 37° C. for 24 h. In addition, APP571-696 was cloned to a pcDNA plasmid carrying a SPE leader for secretion expression. Transfected HEK293F cells were cultured in Expi293 media for 72 hrs with the presence of 14-800 nM purified IgG. The supernatants were clarified by centrifugation and 0.45 μm filtration, and produced Aβ1-40 was quantified by ELISA (Abcam).

cdMMP-9 [4] = test: Bio-layer interferometry on cdMMP-9; format: binding; settings: read-out: KD toward cdMMP-9
Chain of cdMMP-9 (P14780 with tags, fused parts or gaps DEL216-390 limits assumed): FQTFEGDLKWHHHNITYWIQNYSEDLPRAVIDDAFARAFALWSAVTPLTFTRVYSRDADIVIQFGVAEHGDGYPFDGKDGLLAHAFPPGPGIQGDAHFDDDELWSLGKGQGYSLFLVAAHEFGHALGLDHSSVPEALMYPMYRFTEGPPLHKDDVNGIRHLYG

cdMMP-12 mutant D4 [5] = biological target: T3, cdMMP-12 mutant D4 (Homo sapiens, UniProt P39900, A167E/A173P/A252Q/H206S/I245T/K233R/M156E/N119Q/N126H/R135E/T215V/V161I/Y113D/Y132K); test: Proteolytic stability of Fabs with cdMMP-12 D4; format: physicochemical; settings: 2 μM Fab, 2 μM cdMMP-12 D4, 4 h, 37° C.
T3 construct: hexahistidine (C); made in house; host or cells: E. coli BL21, pET32b (cytoplasmic, soluble fraction)
T3 sequence (P39900 106-263 Y113D/N119Q/N126H/Y132K/R135E/M156E/V161I/A167E/A173P/H206S/T215V/K233R/I245T/A252Q): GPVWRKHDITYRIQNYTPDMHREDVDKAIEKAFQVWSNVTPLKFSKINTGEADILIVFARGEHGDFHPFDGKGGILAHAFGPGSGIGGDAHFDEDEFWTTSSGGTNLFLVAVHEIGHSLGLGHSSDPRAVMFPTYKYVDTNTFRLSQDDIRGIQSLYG
Experimental: (§1) Proteolytic stability tests 2 μM purified Fabs were incubated with 2 μM cdMMP-12 wt/D4 in 50 mM HEPES, 150 mM NaCl pH 7.5 at 37° C. for 4 h. Samples were analyzed by using 12% non-reducing SDS-PAGE and stained with Coomassie blue. Densitometric interpretation was conducted using a ChemiDoc imager (Bio-Rad).

MMP-1 = biological target: T4, MMP-1 (Homo sapiens, UniProt P03956); test: FRET peptide inhibition assay, MMP-1; format: biochemical
T4 construct: purchased AnaSpec
T4 sequence (P03956 100-469): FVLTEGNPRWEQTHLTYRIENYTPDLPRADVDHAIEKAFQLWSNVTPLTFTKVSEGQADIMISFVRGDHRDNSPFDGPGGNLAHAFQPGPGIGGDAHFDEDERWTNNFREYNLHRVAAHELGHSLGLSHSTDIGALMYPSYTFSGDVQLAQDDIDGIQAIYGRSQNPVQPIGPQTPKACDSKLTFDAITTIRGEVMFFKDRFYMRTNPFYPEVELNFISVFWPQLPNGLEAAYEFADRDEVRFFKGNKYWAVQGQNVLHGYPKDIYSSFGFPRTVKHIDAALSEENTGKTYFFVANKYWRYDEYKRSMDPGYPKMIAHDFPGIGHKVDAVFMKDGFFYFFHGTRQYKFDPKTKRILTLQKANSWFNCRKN
Experimental: (§2) FRET peptide inhibition assays In 96-well assay plates (Corning), 60/250/350/10/10/30 nM of (cd)MMP-1/-7/-9/-12 D4/-12 wt/-14 were preincubated with 1 nM-1 μM purified Fabs for 30 min at room temperature then 1 μM substrate M-2350 (Bachem) was added. Generated fluorescent signals (λEx=328 nm, λEm=393 nm) were monitored at 37° C. to measure the initial velocities. To calculate inhibition constants (KIs), data were fit with the equations for slow tight-binding inhibitors. The inhibition type of the Fabs was determined using the initial velocities of cdMMP-12 D4 as a function of substrate concentration (250-2000 nM) at various Fab concentrations (31-500 nM). The values of Vmax and Km were derived from linearization in accordance with the Lineweaver-Burk equation.

MMP-7 = biological target: T5, MMP-7 (Homo sapiens, UniProt P09237); test: FRET peptide inhibition assay, MMP-7; format: biochemical
T5 construct: purchased AnaSpec
T5 sequence (P09237 95-267): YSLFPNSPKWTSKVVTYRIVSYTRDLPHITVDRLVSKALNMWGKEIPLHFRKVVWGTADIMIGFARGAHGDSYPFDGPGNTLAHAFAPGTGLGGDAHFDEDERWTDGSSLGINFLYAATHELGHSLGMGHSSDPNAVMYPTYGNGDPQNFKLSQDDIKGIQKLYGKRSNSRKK
Experimental: as §2

cdMMP-12 wt [6] = biological target: T6, cdMMP-12 wt (Homo sapiens, UniProt P39900); test: Proteolytic stability of Fabs with cdMMP-12 wt; format: physicochemical; settings: 2 μM Fab, 2 μM cdMMP-12 wt, 4 h, 37° C.
T6 construct: hexahistidine (C); made in house; host or cells: E. coli BL21 (pET32b, cytoplasmic)
T6 sequence (P39900 106-263): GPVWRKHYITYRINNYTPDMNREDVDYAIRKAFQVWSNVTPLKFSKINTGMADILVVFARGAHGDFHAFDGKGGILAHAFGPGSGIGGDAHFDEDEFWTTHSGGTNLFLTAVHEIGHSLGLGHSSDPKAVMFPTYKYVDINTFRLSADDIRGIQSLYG
Experimental: as §1

cdMMP-9 [7] = test: FRET peptide inhibition assay, cdMMP-9 (Example 2); format: biochemical; settings: FRET peptide; read-out: K1 toward cdMMP-9
Experimental: as §2

cdMMP-14 = cdMMP-14 (Homo sapiens, UniProt P50281); test: Bio-layer interferometry on cdMMP-14; format: binding; parameters: human MMP-14 (residue 114-320); hexahistidine (C); made in house; host or cells: E. coli periplasm; settings: read-out: KD toward cdMMP-14
cdMMP-12 mutant D4 [8] = biological target: T3, cdMMP-12 mutant D4; test: FRET peptide inhibition assay, cdMMP-12 D4; format: biochemical; settings: cdMMP-12 D4, FRET peptide, 31-500 nM Fab
Experimental: as §2

cdMMP-12 wt [9] = biological target: T6, cdMMP-12 wt; test: Fibronectin proteolysis inhibition, cdMMP-12 wt (western blot); format: biochemical; settings: 6 μM Fab; 350 nM wt cdMMP-12, 200 nM fibronectin, 37° C.
Experimental: Inhibition tests with macromolecular substrates 10 μg/mL FITC-conjugated elastin (AnaSpec) was incubated with 7 nM cdMMP-12 D4/wt and 2-2000 nM purified Fab in 50 mM Tris-HCl, 150 mM NaCl, 5 mM CaCl2), 100 μM ZnCl2 pH 7.5. Generated fluorescent signals were measured at 12 h with λEx of 490 nm and λEm of 520 nm. […] The samples were separated on 5% non-reducing SDS-PAGE and analyzed by western blotting with anti-Fibronectin antibody (Abcam) and chemiluminescent substrate (Thermo Scientific). […] Assays without cdMMP-12s or Fabs were performed as controls.

cdMMP-12 wt [10] = biological target: T6, cdMMP-12 wt; test: FRET peptide inhibition assay, cdMMP-12 wt; format: biochemical; settings: toward cdMMP-12 wild type
Experimental: as §2

cdMMP-12 wt [11] = biological target: T6, cdMMP-12 wt; test: Elastin-FITC hydrolysis inhibition, cdMMP-12 wt; format: biochemical; settings: 7 nM wt cdMMP-12, 37° C., 12 h
Experimental: Inhibition tests with macromolecular substrates 10 μg/mL FITC-conjugated elastin (AnaSpec) was incubated with 7 nM cdMMP-12 D4/wt and 2-2000 nM purified Fab in 50 mM Tris-HCl, 150 mM NaCl, 5 mM CaCl2), 100 μM ZnCl2 pH 7.5. Generated fluorescent signals were measured at 12 h with λEx of 490 nm and λEm of 520 nm. For inhibition assays on fibronectin, 200 nM fibronectin (Corning) was incubated with 200-350 nM cdMMP-12 wt and 2 μM GM6001 or 0.1-6 μM Fabs in 50 mM HEPES, 150 mM NaCl pH 7.5 at 37° C. for 2-4 h. The samples were separated on 5% non-reducing SDS-PAGE and analyzed by western blotting with anti-Fibronectin antibody (Abcam) and chemiluminescent substrate (Thermo Scientific). For inhibition assays on modified TEM-1 carrying cleavable sequence ([…] (SEQ ID NO:134)) and a N-terminal HA tag, 250 nM modified TEM-1 was incubated with 700 nM cdMMP-12 wt and 10 μM Fabs in 50 mM HEPES, 150 mM NaCl pH 7.5 at 37° C. for 4 h. The samples were separated on 12% non-reducing SDS-PAGE, and the modified TEM-1 was visualized by western blotting using anti-HA antibody (Invitrogen) and chemiluminescent substrate. Assays without cdMMP-12s or Fabs were performed as controls.

Kd (cathepsin B [1]): 190 nM
Inhibition of cathepsin K (selectivity) (cathepsin K): but not cathepsin K
Inhibition of cathepsin B (in words) (cathepsin B [2]): inhibited cathepsin B completely
Ki (cathepsin B [2]): 130 nM
B1: Fab CBA2: anti-cathepsin B antibody clone; VL SEQ ID NO:108, VH SEQ ID NO:81, CDR-H3 SEQ ID NO:84 (antibody, V domains shown)
VH: EVQLVESGGGLVQPGGSLRLSCAASGFNIYYYSIHWVRQAPGKGLEWVAYIYSYYGSTYYADSVKGRFTISADTSKNTAYLQMNSLRAEDTAVYYCARYGYPGGYHFWGWWSSPYAFDYWGQGTLVTVSSAS
VL: DIQMTQSPSSLSASVGDRVTITCRASQSVSSAVAWYQQKPGKAPKLLIYSASSLYSGVPSRFSGSRSGTDFTLTISSLQPEDFATYYCQQWSSSWGYLITFGQGTKVEIKR

B2: IgG B2B2: anti-BACE1 IgG of clone B2B2 (antibody, V domains shown)
VH: EVQLVESGGGLVQPGGSLRLSCAASGFNISSYYMHWVRQAPGKGLEWVASIYSSYGYTYYADSVKGRFTISADTSKNTAYLQMNSLRAEDTAVYYCARYWGYYAWFGSHPWAYGAFDYWGQGTLVTVSSAS
VL: DIQMTQSPSSLSASVGDRVTITCRASQSVSSAVAWYQQKPGKAPKLLIYSASSLYSGVPSRFSGSRSGTDFTLTISSLQPEDFATYYCQQYGYYLITFGQGTKVEIKR
Reduction of amyloid beta (Aβ40) production [3]: 80%

Kd (cathepsin B [1]): 290 nM
Inhibition of cathepsin K (selectivity) (cathepsin K): but not cathepsin K
Inhibition of cathepsin B (in words) (cathepsin B [2]): inhibited cathepsin B completely
Ki (cathepsin B [2]): 200 nM
B3: Fab CBA1: anti-cathepsin B antibody clone; VL SEQ ID NO:110, VH SEQ ID NO:85, CDR-H3 SEQ ID NO:87 (antibody, V domains shown)
VH: EVQLVESGGGLVQPGGSLRLSCAASGFNLYSSYIHWVRQAPGKGLEWVASIYPYSSSTSYADSVKGRFTISADTSKNTAYLQMNSLRAEDTAVYYCARGGGSWSAMDYWGQGTLVTVSSAS
VL: DIQMTQSPSSLSASVGDRVTITCRASQSVSSAVAWYQQKPGKAPKLLIYSASSLYSGVPSRFSGSRSGTDFTLTISSLQPEDFATYYCQQHYSLITFGQGTKVEIKR

B4: Fab LH11: anti-MMP-12 antibody clone; VL SEQ ID NO:124, VH SEQ ID NO:126, CDR-H3 SEQ ID NO:129 (antibody, V domains shown)
VH: EVQLVESGGGLVQPGGSLRLSCAASGFNLSYYSMHWVRQAPGKGLEWVAYIYPYYGSTYYADSVKGRFTISADTSKNTAYLQMNSLRAEDTAVYYCARFLLSIGKLFVGDGSILHVWLYGMDYWGQGTLVTVSSAS
VL: DIQMTQSPSSLSASVGDRVTITCRASQSVSSAVAWYQQKPGKAPKLLIYSASSLYSGVPSRFSGSRSGTDFTLTISSLQPEDFATYYCQQAYYGYLFTFGQGTKVEIKR
Kd (cdMMP-9 [4]): 740 nM
Degradation of Fab by cdMMP-12 D4 (cdMMP-12 mutant D4 [5]): no significant degradation
Inhibition of MMP-1 (selectivity) (MMP-1): did not inhibit and non-
Inhibition of MMP-7 (selectivity) (MMP-7): did not inhibit and non-
Fab remained intact after exposure to cdMMP-12 wt (cdMMP-12 wt [6]): 67%
Ki (cdMMP-9 [7]): 6200 nM
Kd (cdMMP-14): ~700 nM
Type of inhibition (Lineweaver-Burk) (cdMMP-12 mutant D4 [8]): substrate competitive manner
Fibronectin remaining after cdMMP-12 wt hydrolysis (cdMMP-12 wt [9]): significant amounts of fibronectin remained
Inhibition FRET peptide (cdMMP-12 wt [10]): non-
Inhibition of elastin-FITC hydrolysis (cdMMP-12 wt [11]; 2 nM Fab): 0%
Inhibition of elastin-FITC hydrolysis (cdMMP-12 wt [11]; 16 nM Fab): 49%
Inhibition of elastin-FITC hydrolysis (cdMMP-12 wt [11]; 63 nM Fab): 62%
Inhibition of elastin-FITC hydrolysis (cdMMP-12 wt [11]; 500 nM Fab): 86%
